± gives the standard deviation.
Test: protein stability index of a GFP-peptide fusion (GPS, HEK-293T) (PSI 1-6); higher = more stable
Details: c terminus: a fixed tail appended
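Also: 24-mer peptide tiles fused after GFP, lentivirally expressed, FACS-sorted into six equal bins by GFP/DsRed ratio, decoded by Illumina sequencing, PSI is the read-weighted mean bin number.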

Row | Sequence | protein stability index (treatment: DMSO) | protein stability index (treatment: MLN4924 1 uM, 8 h)
1 | LQISEELLSRNQLSTAASLGPSGL [LCOR] | 3.5 ± 0.14 | 3.35 ± 0.41
2 | AESKGTGREKPGPLDFEAYSAAAL [FCHO1] | 4.8 ± 0.12 | 5.04 ± 0.22
3 | YPSLQAMGWFNNEVGSMKIQSGAW [CRYBA1] | 1.99 ± 0.41 | 2.45 ± 0.17
4 | IIKQIPVEQMTKEERQAAQNECQV [NEK8] | 4.93 ± 0.19 | 4.75 ± 0.24
5 | QELDIKKNERLWLLDDSKTWWRVR [NCK2] | 2.37 ± 0.14 | 2.61 ± 0.28
6 | QRSVSDVASGSTPAPALCCAPYDS [IRX6] | 4.8 ± 0.34 | 4.94 ± 0.085
7 | HYYLMDDTVEIREVHERNDGIDPF [EFHC1] | 3.92 ± 0.18 | 3.86 ± 0.32
8 | DVKKEKLSPDIMKDAYVQKLVKVC [TENT5D] | 2.94 ± 0.52 | 3.1 ± 0.076
9 | KFLPSSEEDNDDAKILPSPVQGSS [DRICH1] | 5.21 ± 0.25 | 5.47 ± 0.17
10 | MSGDGATEQAAEYVPEKVKKAEKK [CSTF3] | 5.52 ± 0.18 | 5.65 ± 0.15
11 | PPSARHRAHPPQRPASSGGAHTLV [KCNA3] | 4.06 ± 0.42 | 4.1 ± 0.45
12 | AFCNGQKLQVSQQEDITKSLLVTE [IMPA1] | 3.69 ± 0.12 | 3.73 ± 0.27
13 | KEFILTDEEVQRKREMILKRKEEE [VDR] | 5.33 ± 0.23 | 5.38 ± 0.23
14 | VTEFILLGLTQNPEGQKVLFVTFL [OR4A15] | 2.96 ± 0.44 | 3.27 ± 0.29
15 | GDLGDPFHLGLEDILMEEEEGVVG [TFE3] | 5.33 ± 0.34 | 5.3 ± 0.2
16 | STYYWPRPRRYVQPPEMIGPMRPE [GAGE1] | 2.68 ± 0.33 | 3.01 ± 0.31
17 | LLALAGAVQRLEGALWGLQAQAVQ [SCARA5] | 3.33 ± 0.29 | 3.48 ± 0.14
18 | SRQRQSRMEKGEPYMSIQPAEDPD [SMARCE1] | 5.55 ± 0.11 | 5.57 ± 0.33
19 | GYRDYGHSRRHESYSRGYSYHDGY [RBMY1A1] | 2.64 ± 0.25 | 2.61 ± 0.45
20 | SEPIRRAGKSGTSTPTTPGSTAIT [MAP2] | 4.66 ± 0.25 | 4.65 ± 0.2
21 | MTDQQAEARSYLSEEMIAEFKAAF [TNNC2] | 4.22 ± 0.13 | 4.25 ± 0.16
22 | HWRECLFYPALWPQLRICLRVSPA [FBXO33] | 2.42 ± 1.1 | 2.61 ± 0.78

Row | Sequence | protein stability index (treatment: DMSO) | protein stability index (treatment: MLN4924 1 uM, 8 h)
23 | KELEARVRKPAEAERYKLERLAEA [FLOT1] | 4.88 ± 0.29 | 4.95 ± 0.16
24 | LYSLTLYGLRGPHKADSIQGTART [TNXB] | 2.11 ± 0.21 | 2.48 ± 0.3
25 | CEEQKCEEEVFPLAMNYLDRFLAG [CCND2] | 3.82 ± 0.17 | 4.05 ± 0.28
26 | NMCMGRTSRGKLGGQDSFESIESY [ETS1] | 3.612 ± 0.034 | 3.72 ± 0.49
27 | YSLTTSSTHKRSSLRKVKLVRPPQ [RAB40B] | 3.42 ± 0.24 | 3.63 ± 0.32
28 | KKGLFLKHVEYEVSSQRFKSSVYR [SNX8] | 2.38 ± 0.14 | 2.91 ± 0.28
29 | SLVKELLRMCSHGEGKINYYNFVR [EFHC1] | 2.31 ± 0.32 | 2.46 ± 0.8
30 | FSPIAIDGMSGLAGVGLSGGAAGA [ELAVL3] | 3.04 ± 0.26 | 3.2 ± 0.26
31 | KSKVVGDRENGSDNLPSSAGSGDK [TPD52L2] | 5.39 ± 0.1 | 5.55 ± 0.16
32 | SVNEVDFEGRTPMHVACQHGQENI [RIPK4] | 4.31 ± 0.27 | 4.57 ± 0.076
33 | VFLPIVVLIFKSILFLPCLRKKIL [STEAP1] | 2.98 ± 0.78 | 2.98 ± 0.59
34 | YQRPQDSEDMWGDEDFTFGAYQPT [FBF1] | 3.2 ± 0.55 | 3.76 ± 0.48
35 | GYGRDRDYSDHPSGGSYRDSYESY [RBMX] | 3.91 ± 0.2 | 3.462 ± 0.032
36 | NGDLSRSLSPSPLGSSAASTALER [FCHO1] | 4.78 ± 0.22 | 4.83 ± 0.37
37 | NTFVRYLLKRIKKCCGMRNTDVSM [KCNK9] | 3.38 ± 0.59 | 3 ± 0.35
38 | TEGFPPGGGNARATGMFLQYTVPG [ZFYVE21] | 3.11 ± 0.16 | 3.07 ± 0.27
39 | NIYCLNCEVPTCSLCKVFGAHKDC [TRIM55] | 3.11 ± 0.35 | 3.21 ± 0.48
40 | GRECQPRWETSSWSECSRTCGEGY [ADAMTSL2] | 3.78 ± 0.15 | 3.49 ± 0.092
41 | RLHLRRTTEQHVPEVEVQVKRRRT [SNURF] | 4.75 ± 0.26 | 4.71 ± 0.35
42 | KDHSCKDNIREAFQIYDKEASGYV [EFHC1] | 3.72 ± 0.31 | 3.81 ± 0.13
43 | LGVALFTMLAGHYPFQDSEPVLLF [TRIB3] | 2.94 ± 0.59 | 2.93 ± 0.27
44 | SVAHLPWRMLTYKALNTFIDDLFA [CLPTM1] | 2.46 ± 0.25 | 2.28 ± 0.37

Row | Sequence | protein stability index (treatment: DMSO) | protein stability index (treatment: MLN4924 1 uM, 8 h)
45 | TFPSGSGAHFPQVPGGAVRVAAAA [PI4K2A] | 3.81 ± 0.27 | 3.81 ± 0.32
46 | KINENVAAGMRFPLPEAIDPDVGV [PCDHGA10] | 3.79 ± 0.081 | 4.26 ± 0.44
47 | IQRIRSEIENVKKQASNLETAIAD [KRT71] | 4.42 ± 0.29 | 4.61 ± 0.31
48 | QLRCEMEQQNQEYKILLDVKTRLE [KRT17] | 3.63 ± 0.28 | 3.83 ± 0.098
49 | NKHLCYVFDSEKCVSIPDVVGWFV [GULP1] | 2.76 ± 0.88 | 2.13 ± 0.51
50 | LYYQSQELPNGSVKEAPAPTPTSL [PDZK1] | 3.87 ± 0.27 | 3.93 ± 0.19
51 | AAGVFSNPAVRTAAANAAAGAAEN [SCAMP3] | 5.03 ± 0.1 | 5.06 ± 0.23
52 | QGKYECVATNSAGTRYSAPANLYV [PTPRD] | 2.9 ± 0.22 | 2.89 ± 0.64
53 | MQRKQSLGKPDQKDLNENLAATQG [DLC1] | 5.11 ± 0.37 | 4.99 ± 0.45
54 | ERNRMHGLNDALDNLRKVVPCYSK [NEUROD6] | 2.75 ± 0.47 | 3.02 ± 0.32
55 | KKKYMPYNHQHKYFFLIGPPALLP [FADS1] | 3.14 ± 0.67 | 1.76 ± 0.053
56 | RRPRTAFTQNQIEVLENVFRVNCY [HESX1] | 2.39 ± 0.15 | 2.53 ± 0.24
57 | EGDTVSQELLDTVLVNLVPAHKNL [PDS5B] | 3.65 ± 0.24 | 3.94 ± 0.34
58 | TEITELRRTLQGLEIELQSQLSMK [KRT13] | 2.78 ± 0.27 | 2.85 ± 0.18
59 | VTIPAGATHILVRQQGNPGHRSIY [ADAMTS4] | 2.51 ± 0.12 | 2.32 ± 0.52
60 | ERVVINISGLRFETQLKTLAQFPN [KCNA1] | 2.47 ± 0.29 | 2.32 ± 0.55
61 | HKIKHKHILAKNYFSQVPVLASFI [IQUB] | 2.34 ± 0.37 | 2.32 ± 0.55
62 | QGMEGIKVFLHERELWLKFHEVGT [TBX5] | 2.2 ± 0.14 | 2.17 ± 0.23
63 | RWLPEKRANPCLSSSNEHAAPAAK [ELOA2] | 4.25 ± 0.18 | 4.08 ± 0.16
64 | LGDLLMPTMAPAGQPAPVSMVPPS [SNAP91] | 3.26 ± 0.2 | 3.51 ± 0.18
65 | ASLDNGGCALTTFSVLEGEKNNHR [SOAT1] | 4.2 ± 0.31 | 4.34 ± 0.09
